pKd: −log10 of the molar value.

We go through 1 substance from PMC10140330.

The target in the assay is SmT1-R, resistin-trimerized SARS-CoV-2 reference strain spike ectodomain (SARS-CoV-2 | human) (UniProt P0DTC2). Briefly: SPR; Biacore T200, 25°C, PBS with 0.05% Tween 20 and 3.4 mM EDTA; spike trimer captured through its resistin domain on an immobilised anti-resistin VHH-Fc; monomeric ACE2 flowed over, single cycle kinetics, three concentrations, 5-fold dilutions from 200 nM; 1:1 binding model.

With “recombinant human ACE2, purified monomeric (from UniProt Q9BYF1 18-805) (receptor)”, the pKd (in general, the negative decadic logarithm of the Kd, by convention in mol/L) was 7.55.
